Results taken from the supplement of paper PMC12042874.
± gives the uncertainty stated by the source.

Assay: amyloid nucleation score (Sup35N fusion, yeast selection) (log enrichment); library NNK2; higher = more nucleation; inactive = no reads after selection
Method in brief: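 The nucleation score is the log enrichment of output over input reads, calculated with DiMSum and centred on the mode score of non-aggregating sequences. Sequences with under 100 input reads were excluded. Reads came from Illumina sequencing of plasmid inserts from psi-negative yeast expressing Sup35N fused to peptides of 20 random codons, induced 24 hours with 100 μM copper sulfate and grown 7 days at 30°C without adenine and uracil.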

| Substance | amyloid nucleation score |
| --- | --- |
| DGRADFYSCVCLYYSWNGY | 3.62 ± 0.037 |
| VFILSEYVTNAVK | -0.165 ± 0.54 |
| NLFYKKSLRLCYGLLQLRDF | inactive |
| NWLKYFYVSDFQWWKGYPHV | -0.067 ± 0.36 |
| GYAADLWWVLLFYERLVSGD | 0.026 ± 0.49 |
| EDAFMSFCMVRLWDHF | -0.089 ± 1.1 |
| YWGSFGDKLKLLNMCPLSLD | inactive |
| LTFLYGVGVRFCRPSLVVQS | 0.2 ± 0.24 |
| RARLKTMRPGSCSRARGWCG | 0.883 ± 0.33 |
| DLARPDFKLIYSYGSNSPGS | -1.38 ± 0.64 |
| IYVFGIGTYMVTQFLCSTTI | 6.909 ± 0.031 |
| HTGLFWS | inactive |
| SSYLGMENQRLMRKESGCCL | 0.09 ± 0.41 |
| NTEKSIVVRDMIKDSYPFSV | inactive |
| GEGHWNYLLASFCNHGMCYF | 7.471 ± 0.029 |
| CIELLYEYAIDLQAWVLLER | 0.389 ± 0.66 |
| ILRCICRNILSSSRVRCSYH | inactive |
| KVSSLNCCVRCLDTMCAFQV | 6.15 ± 0.088 |
| VCNFSTLELVVEDGSKAYRG | -0.079 ± 0.3 |
| IFYHHLSWTEFRCGRTFLSV | 0.196 ± 0.42 |
| LTYLVADLL | -0.142 ± 0.79 |
| YTRSAGGLISL | -0.774 ± 1.1 |
| YWFQKLEGSRHDMV | -0.121 ± 1.1 |
| LKGQYWVLRKGGCEGGLSAG | 1.81 ± 0.45 |
| GIYNVLS | -0.108 ± 1.1 |

| Substance | amyloid nucleation score |
| --- | --- |
| VGFISTMWHMYSELLGQINV | -0.499 ± 0.76 |
| HTTDFIVLMVRSDASIRLWS | 4.1 ± 0.077 |
| VVDTGFQRTGKSWIINDRGM | 0.253 ± 0.14 |
| DSFVIAVLQIIPYTLTQHSK | 1.7 ± 0.085 |
| LHIRVLSQVRLCDDWRASAS | -0.016 ± 0.33 |
| GVCPTVVCPHYIDVRML | 0.16 ± 0.55 |
| FTWVYMVGFKWWVSVCLLDS | -0.551 ± 0.28 |
| SFDCKVMVFCAMRYNLRIMS | -1 ± 0.5 |
| NNNFMRTR | 2.44 ± 0.066 |
| SGCVA | 0.474 ± 0.24 |
| VFSNDASDNTRGRWLGYGFF | inactive |
| FLMANSFFCNCFYTVYFTHC | 4.52 ± 0.047 |
| NFVYMFVKL | 4.97 ± 0.062 |
| LIICSAPCCVTTWQQLRTMQ | 4.15 ± 0.047 |
| HIFHCLSMGILGCSMFLCLD | 0.952 ± 0.24 |
| LTATFTNMGCTTGSKCLM | inactive |
| CKRSWVSYMHW | -0.593 ± 1.1 |
| CRVRVTFG | -0.481 ± 1.1 |
| SYANCNLNVNTLREEVHERW | 0.268 ± 0.62 |
| FRFWLIDAHLLWDFSYLDTR | 3.28 ± 0.13 |
| QLGLLFFGTVLM | 1.87 ± 0.14 |
| AWGHIHAVPMYNALLYNSHD | 0.695 ± 0.66 |
| ILAYPFRCIETNSLLKMSPL | 0.402 ± 0.8 |
| VTNSVSHIVDCCAHSERVWV | 0.111 ± 0.39 |
| WGTCMCRKWASHFDREC | 2.55 ± 0.17 |

| Substance | amyloid nucleation score |
| --- | --- |
| SMVFFGPFIFYVANPITSFV | 5.54 ± 0.068 |
| VARHIHLTRSRNNFSSGRKA | 0.958 ± 0.4 |
| CARNTIAWVSNGMEFGSTGG | -0.582 ± 0.76 |
| FPTFFCLAIIWKYMFLLIKF | -0.238 ± 1.1 |
| ILSHTGRVYKLRLYVIQIVR | -0.434 ± 0.61 |
| DMSSHGGWFRPRRFLEISPL | 0.183 ± 1 |
| FMSIFDWSCVWFYLCKGTWD | -1.75 ± 0.54 |
| IPNSGRGWSPAWPKMALTYS | 0.746 ± 0.24 |
| LTMLPDNVPTKALFSYLSVT | -1.24 ± 0.76 |
| WSPIGSFRCCGWCSSHQVRI | 0.179 ± 0.57 |
| NSFVAIKCIV | -0.023 ± 0.33 |
| YIVCYAVSGLVWSIGSHEGM | 1.86 ± 0.13 |
| QSPSIRTCTYYGTYRRLKKG | inactive |
| VDSRGFHYDL | inactive |
| STCVCYGSFCEASLWASLDG | 6.58 ± 0.075 |
| REAARRLGEKPNIAVGFDAG | 0.559 ± 0.44 |
| EWIIERRSL | -0.279 ± 0.63 |
| ESSSVKPPVRFLW | 0.455 ± 0.64 |
| VLIRSSDNWWAEGSGVLGSC | 0.201 ± 1 |
| SEGLG | 3.53 ± 0.063 |
| FIFLNNIHTYIYYVR | 6.292 ± 0.034 |
| PFMLSVHFALYMSDYIYMHL | -0.02 ± 0.46 |
| CGNSHMYMNAGDFT | -0.293 ± 0.79 |
| SVFYVSKSSLTPDLDSVFLS | -0.376 ± 0.48 |
| SREYDCYLWRNLVWNCWMNW | 5.638 ± 0.048 |

| Substance | amyloid nucleation score |
| --- | --- |
| SIDYD | -0.627 ± 0.76 |
| LLNYTRGACCDRTRVQFSTT | -0.079 ± 0.76 |
| SFNVYRASGVKVRQWAFHGG | 0.076 ± 0.61 |
| ILLFQSAYHKSIEIWGNESF | 4.21 ± 0.043 |
| CRMYRSRCNCMCDRVVEMWG | -0.407 ± 0.4 |
| LWMVFSGNALEKYSSDFCHC | -1.22 ± 0.78 |
| GSMITCFVSDTLYKTVMVKL | 0.373 ± 0.54 |
| LRYRVMT | 1.23 ± 0.52 |
| CLNCI | -0.497 ± 1 |
| DSSIDRWF | 1.15 ± 0.22 |
| MTSRVETSKCNCSLQVWRPL | 0.579 ± 0.37 |
| EPHSAI | -0.1 ± 1 |
| LSHEFMIEW | -0.19 ± 0.62 |
| LRSWEGLSQAWRPCCVILHN | 0.48 ± 0.34 |
| NDMFLSYLHSPWYNVLCDFI | -1.29 ± 0.49 |
| VRYFGDILFMSALYNLAGFA | inactive |
| GRKISNCCQCWCHGL | 7.72 ± 0.042 |
| CDSAAFRPYLFSAENLSLYK | 0.53 ± 0.66 |
| IVSVFQYRTVNIFVGFYYIR | inactive |
| LRVMSSISDDNAQEFDDFCV | 3.75 ± 0.062 |
| RIHFGFRMMMCRDIRIFTSQ | 6.06 ± 0.064 |
| YSGLKCALCRCC | 1.94 ± 0.3 |
| CVMALVYACRAAHTRPMAYS | inactive |
| DNSVHCSFSYFNLPELKGCY | 3.8 ± 0.065 |
| FGYFYMKHLTPALMPYTGY | -0.441 ± 1.1 |

| Substance | amyloid nucleation score |
| --- | --- |
| IVQSSTAKHEDQVFGKKV | 1.24 ± 0.61 |
| ILLTFVPAEKSWTSAIL | 0.058 ± 0.55 |
| AYSDNTFRQCSISVL | 0.218 ± 0.8 |
| VCYYMWWFVYKHRSWQSGSW | -0.639 ± 0.74 |
| KRCYCIKGVCNLNGISPKVK | -0.468 ± 0.36 |
| NGMFLRTRCIRVFAVRRMLQ | 1.12 ± 0.26 |
| KFGSWDHSACYSRWYSKSFV | -0.012 ± 1.1 |
| IVRRGAYSTGWMVMMLLQSL | 0.859 ± 0.8 |
| THLKYTFWIFV | 2.62 ± 0.14 |
| LGSLDSVFNSFHRAGS | -0.518 ± 0.56 |
| RIRCIVGSVPCMAASKHDGR | 0.783 ± 0.22 |
| RTLYSGWVGHVSKEARNLFK | 6.12 ± 0.054 |
| TYFVLYVCED | 0.311 ± 0.23 |
| VRFVMNRSHHRSRWEAVAFN | 0.255 ± 0.48 |
| FTVVIINISYTLSVLRERQM | 1.5 ± 0.14 |
| WQRMDGIGELILMCCRYSFL | 5.819 ± 0.033 |
| SVVGQKVGGR | 0.487 ± 0.33 |
| IHPRSFRNVCLSSHSEMGG | -0.813 ± 0.76 |
| YNQRTFVSVSYEWTSGPWVC | 0.334 ± 0.33 |
| GFSRRGELHVSVYHIRDNVR | -1.11 ± 1.1 |
| RASARLVCTFYVLTERG | 4.17 ± 0.064 |
| PTRLTVKVMCLKPEPLVWKL | 6.476 ± 0.042 |
| KSTVIMSDTFLR | -0.271 ± 1 |
| CSIPCCVGHTLSLGRQFVFV | 0.13 ± 0.43 |
| EIMSFSVRSKYAFWIPIAIC | -0.026 ± 0.53 |

| Substance | amyloid nucleation score |
| --- | --- |
| SLYLNKSSSSGRIQLYGLFT | 0.049 ± 1.1 |
| LWFGRSCGFGIGVYYRRPSL | -0.213 ± 0.48 |
| MTQPEGY | 0.325 ± 0.56 |
| VMNHWCNVWSFPWTMVRTHQ | 0.352 ± 0.31 |
| SKGYCWNVICSRVSFTTYAL | 6.77 ± 0.061 |
| WEASSFKVSGLSGSHHPSKG | 2.3 ± 0.13 |
| CLWSTN | 0.801 ± 0.58 |
| YDVSFTFLWW | 0.242 ± 0.61 |
| RFSELSHK | -0.144 ± 0.26 |
| LPGQGIWWHICIEG | 1.24 ± 0.14 |
| YTVNCCIRANANGAFFSKVQ | 3.69 ± 0.053 |
| RFYGVY | inactive |
| QTDMII | inactive |
| LKSDRSLMLIEPALDLIWYF | -0.27 ± 1.1 |
| EVRIDHGHVIA | 0.293 ± 0.43 |
| IIALLYIKMTSTLVTVRKSL | 0.297 ± 0.5 |
| NIQDLARSLDRDWTYIGIES | 3.65 ± 0.079 |
| FLRYHNAGALENIRYVSCLC | -0.253 ± 0.56 |
| NFNACIPNKDRSFSNVDVCV | -1.35 ± 1 |
| WSRADDRQWGPRLDNVVVMV | 0.83 ± 0.45 |
| CKCPYFLCIRFWDVDSAMLS | 2.21 ± 0.076 |
| RTIVCF | -0.699 ± 1 |
| SFTCLLSFKQSCHSFMPCPC | 1.03 ± 0.32 |
| GELWCDLRILFVGVSLIVL | inactive |
| KLQFVGFCTNDAKYKGRIPG | 2.35 ± 0.089 |

| Substance | amyloid nucleation score |
| --- | --- |
| DVRSRVHWDMSDQQFIMWWV | -0.716 ± 1.1 |
| SSSLSWLS | -0.609 ± 0.76 |
| KRSLLQKLCC | -0.421 ± 0.61 |
| PGIMNVPS | 0.456 ± 0.32 |
| CTTLLALHMWISCVIGWSR | 0.172 ± 0.39 |
| FILDGSPVYWAIWKGG | -1.46 ± 0.78 |
| SNIYRCPVMSIRSVSHS | 0.536 ± 0.66 |
| VVDTMNFNYCVVCSLRSVWQ | 10.5 ± 0.058 |
| TRIRWWF | 4.21 ± 0.067 |
| YALCLKALEFMVMGLPSSRM | -0.049 ± 0.76 |
| YSNSPCVIYNMKGRGSLLSH | -1.6 ± 0.64 |
| LNRDFMVHLSCGTWPSARKW | 0.067 ± 0.5 |
| DAWSCRRLF | inactive |
| VSSHNCWFFRGSGWFLFHHW | inactive |
| RRFVCRCFRYTHECVLGCFG | 1.52 ± 0.33 |
| FRLTIDNFDVNGLLSEMAYG | -0.293 ± 0.38 |
| LLIFGVVLRVMNVVDPIRDI | -1.13 ± 0.55 |
| AWACYSECQDIRGNYSEVVL | -0.671 ± 0.48 |
| PCACCYGSLAYAAVHSNWLG | 8.495 ± 0.07 |
